Data: US10323078B2, “Isolated peptides and fragments thereof from fibrinogen for use as drugs, particularly in skin inflammatory diseases” (Universite Paris Descartes, priority 2015, dated 2019)
Ends that are not written are not given here.

Assays:
[1] = system: NHEK cells; assay: In vitro model of psoriasis: IL-8 release by keratinocytes stimulated by IL-17, OSM and TNF-α; type: cell-based, human; details: NHEK stimulated by IL-17, OSM and TNF-α (3 ng/ml each); 10 μM; 48 h
Protocol: (§1) FIG. 30: Inhibition of Il-8 production by keratinocytes stimulated by Il-17, OSM and TNF-α. NHEK cells were stimulated by a combination of Il-17, OSM and TNF-α (3 ng/ml each) and treated with JAK inhibitor at 10 μM (positive control) or Fg1.1.1 at concentrations ranging from 1.52 to 12.2 μM for 48 h. Measurement of IL-8 production was realized by ELISA and cytotoxicity was determined by the MTT assay as described in Materials and Methods Control experiments were done with untreated and unstimulated NHEK cells (cell alone) and with untreated NHEK stimulated by the combination of Il-17, OSM and TNF-α. Data are means±S.D. of three individual experiments. Statistical significance is indicated by * (P<0.05), ** (P<0.01), and *** (P<0.001), respectively.
(§2) For experiences using an in vitro model of psoriasis, cutaneous primary human keratinocytes (NHDK) were grown in culture medium for 24 hours. […]
(§3) Human IL-1ß, IL-8, IL-12, hBD-2, and TNF-α protein concentration was measured in the supernatants of stimulated cells using various ELISA Set kits (Ready-Set-Go kit from eBioscience for acne experiments, and for psoriasis experiments the Duo set IL-8 kit from R&D Systems and the BD-2 Human Development (hBD-2) from Peprotech) according to the manufacturer's instructions. […] The optical density was determined at 450 nm at a wavelength correction of 540 nm. […]

[2] = system: NHEK cells; assay: In vitro model of psoriasis: hBD-2 release by keratinocytes stimulated by IL-17, OSM and TNF-α; type: cell-based, human; details: NHEK stimulated by IL-17, OSM and TNF-α (5 ng/ml each); 10 μM; 72 h
Protocol: as §1, with “31:” for “30:”, “hBD-2” for “Il-8”, “(5” for “(3”, “72” for “48”, “hBD-2” for “IL-8”
as §2, §3

[3] = system: NHEK cells; assay: In vitro model of psoriasis: cytotoxicity by MTT assay; type: cell-based, human; details: all concentrations tested (1.52 to 12.2 μM)
Protocol: as §1, with “Statistical significance is indicated by * (P<0.05), ** (P<0.01), and *** (P<0.001), respectively.” left out
FIG. 31: Inhibition of hBD-2 production by keratinocytes stimulated by Il-17, OSM and TNF-α. […] Measurement of hBD-2 production was realized by ELISA and cytotoxicity was determined by the MTT assay as described in Materials and Methods Control experiments were done with untreated and unstimulated NHEK cells (cell alone) and with untreated NHEK stimulated by the combination of Il-17, OSM and TNF-α. […]
Crystal violet staining was used to determine the number of adherent cells in 96-well plates. […] After washing with PBS, 100% methanol was added, and the absorbance was measured spectrophotometrically at 540 nm on an ELISA multiwell reader. […] After thorough mixing, the absorbance was measured at 540 nm.

[4] = system: Pfg; assay: Western ligand blot with biotinylated Pfg; type: binding, Propionibacterium acnes; details: E. coli total protein after IPTG induction, 12.5% SDS-PAGE; biotinylated Pfg 0.1 μg/ml
Protocol: FIG. 5: Binding of P. acnes surface proteins to fibrinogen. (A) Various quantities of human fibrinogen (hFg) and bovine fibrinogen (bFg) were immobilized onto a 96-well polystyrene plate at 4° C. for 18 h and incubated with biotinylated Pfg at 0.1 μg/ml for 2 h at 23° C. Bovine serum albumin (BSA) was used as negative control. Bound material was detected by using the HRP-streptavidin conjugate. Peroxidase activity was measured by using the ABTS substrate at 405 nm. Proteins (10 μg per lane) were separated by 10% SDS-PAGE and detected by (B) Commassie blue staining, and transferred to nitrocellulose membrane and incubated with (C) HRP-streptavidine alone, and (D) biotinylated Pfg (0.1 μg/ml). Lanes 1: molecular weight standards. Lane 2: BSA. Lane 3: hFg. Lane 4: bFg.
FIG. 8: Cloning of Bß human fibrinogen fragments and binding with Pfg. (A) Cloning and expression of recombinant human Bß fibrinogen fragments Fg1, Fg2, Fg3 and Fg4. Fibrinogen fragments were obtained by RT-PCR and expression plasmids were constructed as described in Materials and Methods. (B) GST-fused proteins were expressed in E. coli, fractionated by 12.5% SDS-PAGE, and detected by Coomassie blue staining (B), and incubated with biotinylated Pfg (0.1 μg/ml) as described in Materials and Methods (C).
To characterize the interaction between P. acnes and ligands, we used biotinylated molecules in quantitative and qualitative assays. In a first set of assays, ECM ligands (fibrinogen, collagens I, IV, VI and VIII) were used as labelled proteins with biotin. In a second set of assays, P. acnes surface proteins (total extract and purified Pfg) were biotinylated. For quantitative analysis, unlabeled protein were diluted into 50 mM carbonate-bicarbonate, pH 9.6 buffer to yield a protein concentration ranging from 0.01 to 50 μg/ml, and then immobilized to 96-well polystyrene plates at 4° C. overnight. The wells were rinsed three times with 0.2 ml of PBS containing 0.05% Tween-20 (PBS-Tween). Biotinylated proteins (0.01 to 16 μg/ml in PBS-Tween) were added to the wells and incubated at room temperature for 1 h. The wells were rinsed three times with 0.2 ml of PBS-Tween. Peroxidase conjugated to streptavidin (0.5 μg/ml in PBS-Tween) was added and incubated for 30 min at room temperature. After washing, bound peroxidase was detected using the chromogenic peroxidase substrate ABTS. For qualitative analysis, unlabelled protein (10-75 μg per lane) were separated by SDS-PAGE and then transferred to nitrocellulose membranes (0.45 μm pore size), as described previously (Towbin, 1979). Membranes were then saturated overnight at 4° C. in PBS containing 5% BSA, 0.05% Tween-20 (PBT buffer). Binding activity was detected by incubating the membranes with 20 ml of PBT containing biotinylated proteins (0.1 μg/ml) for 2 h at room temperature followed by three washes with PBT. Bound biotinylated proteins were detected by incubating the membrane with peroxidase conjugated to streptavidin (0.5 μg/ml in PBT) for 1 h at room temperature. After washing, bound peroxidase activity was detected using 3,3′-diaminobenzidine in the presence of CoCl2 and H2O2 (Harlow and Lane, 1988).
Since it was shown that Pfg is recognized by fibrinogen, this ECM ligand was used to analyze the nature of this interaction. First it was analyzed the ability of fibrinogen to be recognized by purified Pfg (FIG. 5). Human and bovine Fg (hFg, bFg) were immobilized to polysterene plate and the binding activity of biotinylated Pfg was measured. […] It has been shown that fibrinogen is a glycoprotein containing both N- and O-linked glycans (Debeire 1985; Reid Townsend 1982; L'Hôte 1996). […] In parallel, deglycosylation was assessed by visualization of a shift in the mobility after electrophoresis separation and Coomassie blue staining (FIG. 6A, lanes 3 and 5) and also by using the RCA-I plant lectin able to recognize ß-linked galactosyl residues in terminal position (FIG. 6C) (Green, 1987). […]

[5] = system: HaCaT, NHDK, ThP1, MRC5 and HDF cell lines; assay: Cell viability (MTT) after treatment with Fg1 and Fg2 recombinant peptides; type: cell-based, human; details: all 5 cell lines; 0.22 to 7 mM for 18 h at 37° C.
Protocol: FIG. 10: Evaluation of cell viability after treatment with the Fg1 and Fg2 recombinant peptides. Human immortalized and primary keratinocyte cell lines HaCaT and NHDK; immortalized monocytes cell line ThP1, and immortalized and primary fibroblast cell lines MRCS and HDF were incubated with Fg1 and Fg2 recombinant peptides with concentrations ranging from 0.22 to 7 mM for 18 h at 37° C. Cell viability was assessed using the MTT assay as described in Materials and Methods.
Crystal violet staining was used to determine the number of adherent cells in 96-well plates. Briefly, after incubation with the test compound, the culture medium was discarded and the cells were incubated with a 0.05% crystal violet solution (Sigma) for 30 min at room temperature. After washing with PBS, 100% methanol was added, and the absorbance was measured spectrophotometrically at 540 nm on an ELISA multiwell reader. The MTT ([…]) assay was performed to test cell viability in 96-well plates. […] After thorough mixing, the absorbance was measured at 540 nm.
(§4) Whole P. acnes bacteria are labelled by biotinylation, pre-treated or not with the peptides and contacted with the various cell lines. After removal of the unfixed bacteria, the adhesion activity was measured spectrophotometrically by using the streptavidin-peroxidase conjugate and a chromogenic substrate.

[6] = system: P. acnes RON strain; assay: Adhesion assay, biotinylated P. acnes binding to monocytes (ThP1); type: cell-based, Propionibacterium acnes; details: monocytes (THP-1); bacteria pretreated 0.87 to 7 μM, 1 h at 37° C.
Protocol: FIG. 13: Dose-dependent inhibition of P. acnes RON binding to monocytes cell line. Biotinylated P. acnes RON strain at concentrations adjusted to 0.1 of absorbance at 600 nm was pre-treated with the recombinant peptides Fg1 and Fg2 and incubated 1 h at 37° C. with the human immortalized monocytes cell line ThP1. After removal of unbound bacteria, adhesion activity was detected at 410 nm. Data are means±S.D. of three separate experiments. Statistical significance is indicated by * (P<0.05), ** (P<0.01), *** (P<0.001), and **** (P<0.0001), respectively.
The bacterial suspension was adjusted at 600 nm to the desired concentration, pretreated with peptides Fg1 and Fg2 at the final concentration ranging from 0.87 to 7 μM for 1 h at 37° C. and deposited on the previously saturated cells with a solution of PBS SVF 2% for 2 h. After incubation for 1 h at 37° C., unbound bacteria are removed by 3 washes with PBS and fixed bacteria are detected by a streptavidin-peroxidase solution of 0.5 μg/ml for 30 min.
as §4, with “substrate. […]” for “substrate.”

[7] = system: Pfg binding to fibrinogen; assay: Inhibition of biotinylated Pfg binding to coated fibrinogen; set-up: species or system Propionibacterium acnes; details: biotinylated Pfg pretreated with increasing amount of recombinant peptide 1 h at 37° C.; fibrinogen coated 25 μg per well
Protocol: FIG. 9: Dose-dependent inhibition of biotinylated Pfg binding to fibrinogen by fibrinogen-derived peptide. Biotinylated PFg (0.4 mg) was pretreated with increasing amount of recombinant peptides Fg1 (♦), Fg2 (▪) or BSA as control (●) for 1 h at 37° C., and the binding activity to coated fibrinogen on polystyrene plate (25 μg per well) was evaluated. Results are expressed as mean±SD. Each point was done in quadruplet.
Since it has been shown that only Fg1 was able to recognize Pfg, biotinylated Pfg was pre-treated with various concentrations of purified Fg1 and tested its ability to recognize immobilized fibrinogen. Fg2 and BSA were used as neative controls (FIG. 9).

Jak Inhibitor I
Inhibition of IL-8 release [1]: 67% | Inhibition of hBD-2 release [2]: 80%

LLLCVFLVKSQGVND [Fg1.1.1, LLLCVFLVKSQGVND]
Effect on cell viability (MTT) [3]: no effect on cell viability

B1: DAGGCLHADPDLGVLCPTGCQLQEALLQQERPIRNSVDELNNNVEAVSQTSSSSFQYMYLLKDLWQKRQKQVKDNENVVNEYSSELEKHQLYIDETVNSNIPTNLRVLRSILENLRSKIQKLESDVSAQMEYCRTPCTVSCNIPVVS (protein)
chain: DAGGCLHADPDLGVLCPTGCQLQEALLQQERPIRNSVDELNNNVEAVSQTSSSSFQYMYLLKDLWQKRQKQVKDNENVVNEYSSELEKHQLYIDETVNSNIPTNLRVLRSILENLRSKIQKLESDVSAQMEYCRTPCTVSCNIPVVS
modifications: fragment Fg2
notes: recombinant fragment of Bß sub-unit of human fibrinogen, used as negative control
Recognition of GST-fused recombinant Bß fibrinogen fragments by biotinylated Pfg [4]: only Fg1 was recognized | Cytotoxic activity (cell viability, MTT) [5]: no cytotoxic activity | Inhibition of adhesion of P. acnes RON strain [6]: no anti-adhesive activity | Inhibition of the recognition between Pfg and human fibrinogen [7]: did not
